From article doi:10.1101/2024.05.16.594462v2 come the findings set out here.

Substrate in the data set: OC[C@H]1O[C@@H](n2cnc3c(O)ncnc32)[C@H](O)[C@@H]1O
Description: purified protein. To be noted: […] hPNP.

B1: human purine nucleoside phosphorylase (hPNP) (Homo sapiens) (protein)
chain: MENGYTYEDYKNTAEWLLSHTKHRPQVAIICGSGLGGLTDKLTQAQIFDYGEIPNFPRSTVPGHAGRLVFGFLNGRACVMMQGRFHMYEGYPLWKVTFPVRVFHLLGVDTLVVTNAAGGLNPKFEVGDIMLIRDHINLPGFSGQNPLRGPNDERFGDRFPAMSDAYDRTMRQRALSTWKQMGEQRELQEGTYVMVAGPSFETVAECRVLQKLGADAVGMSTVPEVIVARHCGLRVFGFSLITNKVIMDYESLEKANHEEVLAAGKQAAQKLEQFVSILMASIPLPDKAS
For B1, the Km came out at 68.92 ± 4.08 µM.
